Measured values as given in patent US20040109845A1, “Method for inhibiting articular cartilage matrix calcification” (priority 2001, published 2004).

System: TGase activity in knee meniscal cells and TC28 cells
Assay: TGase activity in nonadherent nodule-forming culture on polyHEME
Type: cell-based, human
Conditions: polyHEME plates, β-glycerophosphate, ascorbate, dexamethasone, up to 10 days; cytokines 10 ng/ml or TGase transfection
Procedure: FIG. 10 refers to effects of direct Factor XIIIa and tTGase expression on TGase activity in meniscal cells and TC28 cells. Human chondrocytic TC28 cells or normal knee meniscal cells (5×10^5), were plated in 60 mm dishes and allowed to adhere overnight, as described in the Methods. Two μg of plasmid DNAs or empty plasmid vector were then transfected, performed as described above. After 24 hrs, the cells were removed from the dishes and plated on polyHEME-coated tissue culture plates and media supplemented with 10 mM P-glycerophosphate, ascorbatte (50 μg/ml) and dexamethasone (10^−8 M), which stimulated the cells to form mineralizing nodules for 3-10 days in culture. For comparison purposes, cells were treated only with IL-1 or TGFβ (10 ng/ml each) for up to 10 days. At each time point designated, the cell nodules were collected and lysed, and TGase activity then determined as previously described. For meniscal cells, data pooled from 6 donors studied in triplicate. For TC28 cells, n=6 each, studied in triplicate. Statistics not indicated on this graph, but p<0.05 for the increases in TGase activities in response to both Factor XIIIa and tTGase transfection, and for IL-1 treatment, at all time points.
TGase activity was measured by modifications to a previously described method (35). Specifically, we coated 96 well ImmunoModule plates (Nunc, Rochester, N.Y.) with 200 μl of 20 mg/ml N,N-dimethylcasein for 1 hr at 23° C. The N,N-dimethylcasein was removed and nonspecific protein binding was blocked by adding 3% BSA in 100 mM Tris, pH 8.5, 150 mM NaCl, 0.05% Tween-20 (TBST) to each well for an additional 1 hr at 23° C. Then, aliquots of 5 μg of total cellular protein from meniscal or TC28 cells that had been lysed and sonicated (in 5 mM Tris HCl, 0.25 M sucrose, 0.2 mM MgSO4, 2 mM DTT, 0.4 mM PMSF, 0.4% Triton X100, pH 7.5), were added to the plate in triplicate. To measure TGase in extracts of whole menisci, 50 mg dry weight of tissue from the central zone of each medial meniscus was used as the source (after solubilization and sonication) for aliquots of 5 μg of soluble protein. Fifty μl of solution A (100 mM Tris, pH 8.5 and 20 mM CaCl2) was added to all samples for TGase assay, followed by the addition of 50 μl of solution B (100 mM Tris, pH 8.5, 40 mM DTT and freshly added 2 mM 5-(Biotinamido) pentylamine (BP)). The plates were incubated for 1 hr at 37° C. The wells were washed once with TBST containing 1 mM EDTA and then three times with TBST. […] Readings at OD410 were taken over 15 minutes. […] TGase activity was designated as the amount of BP incorporated into casein (per μg cellular DNA, determined chromogenically following precipitation in perchlorate (28), or, where indicated, per μg protein, determined as previously described (28)). […]

## IL-1β: Human recombinant IL-1β purchased from R&D Systems
  TGase activity under mineralizing nonadherent conditions: induced significant increases in TGase activity
